The assay concerns the target HER2 (UniProt P04626). Briefly: SPR. On the technique in general: Surface plasmon resonance follows binding to a sensor surface in real time, without labels.

Substance “4D5 Fab modified to contain Q39E in VH, Q38K in VL, S183K in the CH1, and V133E in the CL” came in with a Kd of 0.75 nM. That is a sub-nanomolar value.

Usually Kd stands for the concentration at which binding is half-saturated. A lower Kd goes with a tighter complex.
